experiment: soluble on expression in E. coli; label from the status in PepcDB or PDB records

Sequence	soluble on expression in E. coli
MGSDKIHHHHHHMKLRRNMKWNDEGKRIVEMLKLRTPPVGVKFFQEKYEPERAFRPSKYGIKMAVCQAIAFARYIGRTVVLEAEDFGCPPAMLLYGVAEYEGSLKDILVGAQWLKDESCEVAEQKLPLGKYKSFVFGDMTKMAEEPEAVMIFGTPAQIGRLIQAATYFGGAVKANLTAKTASCAEALFPALRGEVAIAVPGAGDRVFAAIQETEMIFAMPYAWTGKILEGLENAGRGANISYPPSPFLMFTPRFPKHYRETAEKFKLV	not soluble
MLEEIPSSVEADLMPNLDSNVSSDNGTSKRFRIQANAVEARSFFASLVKGTEYSVAIHPAVQGNITVNLSDVTLDEVLSVVQNMYGYDVMKSGKVIQVYPAGMRTVTIPVDYLQFKRSGRSLTSIVTGSVTSAGTSNSGGSSDSSDSSDSNNSNNGNDSSTTSTGGTRIETITESDFWPMLQQAVANLIGSGKGQSVVVTPQAGVITVRAFPDDIREVREFLGVSQERMQRQVILEAKILEVTLSDGYQQGINWSNLSASIGNSGSIIVNRPASALPPLDAIGTLLGGQTNVTISDGNFEAVLNFMSTQGDLNVLSSPRITAANNQKSVIKVGTDQYFVTELSSNAGNGENSNAVPEVELTPFFSGISLDVTPQIDNKGNVFLHVHPAVIEVTEEVKQLNLGGDFQNIQLPLAKSSIRESDSVIRAKDGDVVVIGGLMKQQNVEQVSKVPFLGDVPALGHLFRNTSNVTQKTELVILLKPTVVGVNSWQKELERSRDLLQEWFPDAQLEHHHHHH	soluble
MSININRQNMHKMLQYKRRCIMYINTGYLNHSHKDFKDKSRPLIVGSCGTYRLSQHPKMPTYRPRGRLDYQIIYISSGLVHFHFDNPENETIIPAGHIVLFRPKELQKYEFYGKDKTQIYWLHFTGSDVKNTLRKYGFTDNKRVFNVGTSLEYEQVFKRIITELQRCQDNYEEMLMLLLRHLLIIFNRKITTEHVIRNEFLDSQMDTAITYFNTNYNRSINVEEYASSIGMSISWFIRSFRKYTGNTPVQFLTALRMTNAQVLLETTSYSINEIAGIVGYNNPLYFSRLFHKQKGCSPSEYRARNT	not soluble
MYTDSNNRNFDEVNHQHQQEQDFNGQSKYDYPQFNRPMGLRWRDDQRMMEYFMSNGPVETVPVMPILTEHPPASPFGRGPSTERPTTSSRYEYSSPSLEDIDLIDVLWRSDIAGEKGTRQVAPADQYECDLQTLTEKSTVAPLTAEENARYEDLSKGFYNGFFESFNNNQYQQKHQQQQREQIKTPTLEHPTQKAELEDDLFDEDLAQLFEDVSREEGQLNQLFDNKQQHPVINNVSLSEGIVYNQANLTEMQEMRDSCNQVSISTIPTTSTAQPETLFNVTDSQTVEQWLPTEVVPNDVFPTSNYAYIGMQNDSLQAVVSNGQIDYDHSYQSTGQTPLSPLIIGSSGRQQQTQTSPGSVTVTATATQSLFDPYHSQRHSFSDCTTDSSSTCSRLSSESPRYTSESSTGTHESRFYGKLAPSSGSRYQRSSSPRSSQSSIKIARVVPLASGQRKRGRQSKDEQLASDNELPVSAFQISEMSLSELQQVLKNESLSEYQRQLIRKIRRRGKNKVAARTCRQRRTDRHDKMSHYI	not soluble
MIKFSIRGENIEVTEAIRDYVESKLTKIEKYFAKDQEIDARVNLKVYRERSSKVEVTIPLDSVTLRAEDVSQDMYGSIDLVVDKIERQIRKNKTKIAKKHREKVPTGQVFTTEFEAEEVDEIPEVQVVRTKNVTLKPMDVEEARLQMELLGHDFFIYTDSEDGATNILYRREDGNLGLIEAKLEHHHHHH	soluble
MAHHHHHHMWRPRRVQGLGSGEDICHLVSAVRRQGIRSLPSGLVVAAEIAYRCCSYSIESFQTDSTEAKKPSRVVGTAPTERQKRPSALAPSSSIPATEKAGIIVEWVPDALGYHLPLGLRERWEPSSKASPTEAGGLKASNDAETHGTEQQELEEVSSVGNPCASSRVGDGGGGSGHRSGHSDGPPFYGPLPNFATSPVFEWERCLWQWRPVKITPAAGTPHHTSLTVTAPISSSGEKRPLRDEMHCSDGGENDLAEGGLGESSQVYHLVPFLLCPTLEVCATQPLMHGSLRKELAAAQNACHHLRRSWPEDAKQDLLGTRRCPTYSEHETRLWSITIPTPVGELALSSPQDTDGDDANKQNTMLDLPTFAMIEGEPPMRVGGRIRACCGHGITSPAPPEAETWEAATAAARNERSTSAGNAAVPYVHVFCSEMSAACSDSLLSQTGIKASELPTPSSCDVSSPTLPLTRRNVVGGGLAELILAVDRYAALIARGDLALSAACWATLCDTKSWWVVQRLRVCPLEMERELVAATEAHKLWQQYAVSRNSTLVGKSSHGICFYDYPFLAKWPLGRQAATKATAPIRAHTRWRV	not soluble
MSLKILVIGGTGNIGLPLIQYLDQQVGVQVVAGAHNLHKDEQLLATYPDVEIRRFDFLDETTFDAALRGIQKVFFVRPPQLAKPKQDMWPFLKCLQAHHIEQVVFVSLMGVEHNPMTPHHQIEQMIEQLQLPYTFIRPSFFMQNLNTTHRVDIQQNHDLFIPAGRSKTSFIDTRDIGEIAGVALLDTQYLQQKLTVTGPEALTYQQIAALMTESFGHPVTYHRPSLWRFRRVMLKRGIKKDYVNVMVMLYLITQLGNAKRVTDTAEKVLGHAPHTMTTYLRDYADQLQEGHHHHHH	not soluble
GAGNYQLAVSTLAKVWKQLHIPDVYDVGAMYFIKTFLHFGVSLLSAGHAWTNPQSFLDNAPLRQTLGKMMPFDGIEPSIASGALQALALTASCYTTGMSVTFFQGEESLGEWTRYQRLGVRERIGLDHLMATAAIPLIFPSVRIGEKFYCDGAVRQLSPLSPALH	not soluble
MGIVSAASLIKVINEKQLKMAQDQNPLTALPGNRAIGGFIADSCSDGDETRFFCYCDFDNFKPFNDKYGFNAGDHAITLFSALMRRYFFAGDCFLGHIGGDDFFIGVRDWSVEELMEILERLLSDFHDDVAGLYSDEDRAAGCMKGQDRNGLEHHHHHH	soluble
MPYEMKFKGVYVLAMEDNSSFKGKIEVGDTVTGVDGKSFKSSEELMNYIKAQKVNQKVTVQFIQDGKAKEATGKLIELPTDKKAGIGIGLTDHTLEHHHHHH	soluble
MSFSADALEGGLSSLKLAADKYRSILNDEKTGNIRWRYGGPPIFDTVNKLFEEERTHVQWRYDNPPDFNSVNQLFEEGQTKVWPEGSLEETVQNAIKSWEMEFSHKIRLQDFKTINPEKFKLFVNGREGLSAEETLRLGSYNALLKNSLPEEFQYYKPEEESFESSHDAFRSALPRGFAWEILSVYSGPPVIAFKFRHWGYFEGTFKGHAPTGEMVQFLGLGVLKVDESLRAEEIEIYYDPGELFGGLLKGPPISETKTTDSGDNTAEKQSCPFTH	soluble
MGSDKIHHHHHHVHLTYENTNEEIIAVKRKPRHQPPHLHNAMEIVCVTKGTLELGVGQELYHMETGDIGVVFPDVIHHYQVFSSEVNEAVFINAPQMIFGRFENVLRNNAPQYPVVKSDVIPDEVYRAVESIIDTGQNDIWVVQAYLQIILARCIPMMKLVEKSKIGSDDIIYRTVSYISANFNKSISLDGMAHDLGVSKFSLSRLFSKTFHSSFNQYVNEARLGYACQRIETTDDTLTEISMDSGFGSLRTFNRVFKEKYRLTPSEYRNKLQI	not soluble
MAEEPYVFTLKKRNNDDAEDDWDRYSENVRPTRRGRKIDALKRNVEEVVTEETARLKLDQLLEELQNLECSEESEELQKILDFCSWFEEKLAIGFHKVYYELLWKIISRHGFLEKYKEDERMLKIWEKMADNSAGHAHDIYQFAISRKSLVKCAALYARWSQSVELAGAYVEARRVLILARTNCAVPIQIVNDAEDALEMREMRRHLQERDSDDDEEEEETRKAFTNLPVIGDNHTVPIVRLPSMCSDTTKKAMKFDTGNVERVNPVCKDNQMQPFEVLSYTDADDVEYLRNVHELHAHIERYAIKETTNPSITGSSTSEAAAVTIYPVSSSEFEVWTVEGSGPTKAKARMAIKRVFKDLSFEEYAASLLPNHPSMVRATAKKLDFDETL	not soluble
MSLTNSDWMPTASISQLKQRATLLRQIREFFAERNVLEVETPAMSHATVTDIHLHTFKTEFVGPGYAKGSALHLMTSPEFHMKRLLAAGSGCIYQLGKAFRNEENGRYHNPEFTMLEWYRIGFDHHALMDEMDALLQLVLRCGSAERMTYQEAFLNVLGVCPLEEEMRELKQVAATLGLSDIAEPEEDRDTLLQLLFSIGIEPKIGQITPAFVYDFPASQAALAKINPADPRVADRFEVYFKGIELANGFHELDNPAEQLARFKADNAKRLEMGLTEQPIDYHLIAALEAGLPECAGVALGIDRLIMLALGEDHIDKVTAFPFPRAEGHHHHHH	soluble
MGSDKIHHHHHHMEQNRFKKETKTCSASWPRAPQSTLCATDRLELTYDVYTSAERQRRSRTATRLNLVFLHGSGMSKVVWEYYLPRLVAADAEGNYAIDKVLLIDQVNHGDSAVRNRGRLGTNFNWIDGARDVLKIATCELGSIDSHPALNVVIGHSMGGFQALACDVLQPNLFHLLILIEPVVITRKAIGAGRPGLPPDSPQIPENLYNSLRLKTCDHFANESEYVKYMRNGSFFTNAHSQILQNIIDFERTKASGDDEDGGPVRTKMEQAQNLLCYMNMQTFAPFLISNVKFVRKRTIHIVGARSNWCPPQNQLFLQKTLQNYHLDVIPGGSHLVNVEAPDLVIERINHHIHEFVLTSPLQSSHIPQLTLEERAVMFDRAFDSFKNEALVKTTKQKL	not soluble
MGSDKIHHHHHHMAGVMSRRLDVDALRALVAIERHGGVTRAAEILGLSQSAVSHKIRRLETSLDCEILTRKANAPMFTTAGQDLLGYARRILGIHDEAVLSLSKSPLQGKIALGMTEDTTCTDLSRILGRFRRLYPEVSVRTQVRMSLVLQEQLSQGALDAAIIQVFQHEVRPADILLFRETLHWVKSRDLVLSAGKPVPFLSFDENCFYRRWGIDVGQDEDTVLETVFECSSAAGIIAGVTAGLGVALLSQRYLQPAMEIVDDKFPKPPDLAYVIRRARVPRNPALETLVREIEAEVKRYGTLQIAV	not soluble
MAAETKVQVSDPEAEFLNSKQETGYEWELFKENVRPLKRGRNVGILNHALKSHSDHQLRKNLIEKRRNLIEAIDEYEGDDPLSPWIECIKWVQEAFPPGGECSGLLVIYEQCVRKFWHSERYKDDLRYLKVWLEYAEHCADAEVIYKFLEVNEIGKTHAVYYIAYALHIEFKNKVKTANEIFNLGISRDAKPVEKLNDAYKKFMVRTMRRSNTADEEPKENNDLPSRSFGTLLSRGDNNARRQALGSSNPQAKKLKPNQSSKTPFAIYADAVSDTTSGNQPESDKSRPEFGSWLMLGGRAERNKENNSLPRKWASFKVPQKPIVRTVAAASASTFEVFVDEEECTEEEEEKKKNDETISSSSNVLPLNGGREIKKETELLRQNPLRHFPPNSFLR	not soluble
MVYKPLEASDRTELRALQSDRLQRIVTHAHENVPFYREKLDAAGVSPEDIQSIDDITKLPMTTKEDFRDEYPDGLFAVDDEEVARIHASSGTTGKPKIVSYTDDDLDTWSEVVARSLAASGTEAGDTVQNAYGYGLFTGGLGIHYGTEELGASVVPIGSGQTQRQVELMTDLESDVFTCTPSYALYLAETAEEMGHDPRDLPISTIIFGAEPCTDPMREEIEERLGVDGIDIYGLSEIIGPGVSCECHEAKDGLHIWEDHFYPEVIDPHTKEPVEEGEEGELVLTTLTKEALPVFRYRTGDLTTLNYDECACGRTMVRMDNVTGRTDDLLIVRGVNLYPSEIEHAVLDIDGVAPHYRIDLYKEDNLDILELTIERTAEQGPGDKALEDEIIERLENVLAFTPDELELVAPGSIERTQVGKVKRVYDHRD	not soluble
MGSDKIHHHHHHMENIVELINVTKTFKDFSINKMDLQVKKGFVTGFIGANGAGKSTTIKMMMNLLKPDDGEVKLFGMDYTTHEKAIKERIGFVYDGNVFFEGLNLKDIKHIVGPAYKRWDDTLFYQYVDKFELPLNKAIKTFSKGMQMKASLAIALSHHAELIIMDEPTAGLDPIFRRELLDILQELMIDNDRTIFFSTHITTDLDRIADYIAFMQGGNLVFNQSIHDIDENYALVKGGLDLLDKDTEKAFVHVRRASTGFEALTNNLSAVKNIFGDTVIIERATLEDIMYYMKGGVHYV	not soluble

Reference: the DeepSol protein solubility set
